This is an account of results in PMC3281051, “Probing High Affinity Sequences of DNA Aptamer against VEGF165”.

Series [1] addresses VEGF on HT-29 cells (human) (UniProt P15692). The series can be described thus: flow cytometry. The following applies: hypoxia 1% O2, 37 C, scrambled signal subtracted, SPR (BIAcore 2000, CM5): PBS + 0.005% Tween-20, 25 C, 30 ul/min, aptamer 0.2-100 nM, 1:1 Langmuir fit, cells: culture medium, 2 h.
The target of the next series is VEGF165 (human, UniProt P15692-4 27-191). The series can be described thus: SPR; SPR (BIAcore 2000, CM5): PBS + 0.005% Tween-20, 25 C, 30 ul/min, aptamer 0.2-100 nM, 1:1 Langmuir fit; cells: culture medium, 37 C, 2 h, 1% O2. Particulars: protein: commercial, tags: carrier-free, chain copies: 2.
Another series addresses VEGF121 (human, UniProt P15692-9 27-147). Described as above. The following applies: protein: commercial; tags: carrier-free; chain copies: 2; hairpin.
The target in another series is VEGF165, human (Homo sapiens (Human), UniProt P15692 27-191). In words: SPR; PBS, 0.005% Tween-20, 25 C; protein amine-coupled on CM5. The following applies: chain copies: 2. (In general: In SPR one partner is held on a chip, and binding of the other changes the refractive index at the surface.)
VEGF165, human, sequence (P15692 other isoform, or with tags, fused parts or gaps): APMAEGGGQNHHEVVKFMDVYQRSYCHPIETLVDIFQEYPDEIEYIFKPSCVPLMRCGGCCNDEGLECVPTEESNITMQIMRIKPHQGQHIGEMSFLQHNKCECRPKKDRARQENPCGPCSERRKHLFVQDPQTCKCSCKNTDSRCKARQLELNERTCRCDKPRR

VEGF121, sequence (P15692 other isoform, or with tags, fused parts or gaps): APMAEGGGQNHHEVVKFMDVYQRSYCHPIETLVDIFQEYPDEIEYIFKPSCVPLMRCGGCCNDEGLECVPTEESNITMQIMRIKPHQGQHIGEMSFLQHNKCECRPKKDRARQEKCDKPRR
VEGF on HT-29 cells (human), sequence (P15692 whole entry): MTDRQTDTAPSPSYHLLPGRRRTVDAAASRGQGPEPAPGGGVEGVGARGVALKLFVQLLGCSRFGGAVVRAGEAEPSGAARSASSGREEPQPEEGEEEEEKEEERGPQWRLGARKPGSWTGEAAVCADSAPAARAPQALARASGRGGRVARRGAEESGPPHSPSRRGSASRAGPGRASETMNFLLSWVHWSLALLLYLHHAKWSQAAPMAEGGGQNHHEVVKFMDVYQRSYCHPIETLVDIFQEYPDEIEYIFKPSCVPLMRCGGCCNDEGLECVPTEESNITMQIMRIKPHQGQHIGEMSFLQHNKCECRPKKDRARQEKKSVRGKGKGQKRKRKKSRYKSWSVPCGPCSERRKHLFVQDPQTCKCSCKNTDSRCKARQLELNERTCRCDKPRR

In general, Kd refers to the equilibrium constant for the complex coming apart. Regarding “CAATTGGGCCCGTCCGTATGGTGGGT [SL2-B Texas Red]”, in series [1], the Kd was found to be 1 nM.

Turning to ATACCAGTCTATTCAATTGG (ssDNA) [SL1], the binding result in the series with VEGF165 (hairpin) is “no binding”. As to CCCGTCCGTATGGTGGG (ssDNA) [SL2], the Kd in the series with VEGF165 (hairpin) turned out to be 49 ± 2.4 nM. CAATTGGGCCCGTCCGTATGGTGGGT (ssDNA) [SL2-B]: the results for the Kd with VEGF121 and with VEGF165 (hairpin) were 10200 ± 1890 nM and 0.5 ± 0.32 nM, respectively. In the case of GCCCGTCCGTATGGTGGGT (ssDNA) [SL2-A], the Kd with VEGF165 (hairpin) was found to be 10 ± 1.1 nM.

B1: VEa5 (ssDNA)
DNA: ATACCAGTCTATTCAATTGGGCCCGTCCGTATGGTGGGTGTGCTGGCCAGATAGTATGTGCAATCA
Turning to B1, the Kd with VEGF165 (3 stem-loops (mfold)) was determined as 120 ± 1.8 nM; with VEGF165, human, 120 ± 1.8 nM.
